# Publication PMC5915575
# Where a chain is given by its changes, count along the chain named.
# Experiments:
# Details in all cases: EMSA: 10 mM Tris-HCl pH 7.5, 1 mM EDTA, 50 mM NaCl, 5% glycerol, 30 min room temperature, 10 pmol DNA, 0-18 ug protein, 5% native PAGE at 4 °C; BLI: PBS pH …
# [1] = tested on: SigB (Staphylococcus aureus (strain of the cloned gene not stated; Newman or XQ?)); experiment: BLI
# [2] = tested on: SigB(Q225P) (Staphylococcus aureus (strain of the cloned gene not stated; XQW or Newman-SigB(Q225P)?)); experiment: BLI
# [3] = tested on: T1, SigB (Staphylococcus aureus (strain of the cloned gene not stated; Newman or XQ?)), ORF:92324cdd; experiment: EMSA
# T1 sequence: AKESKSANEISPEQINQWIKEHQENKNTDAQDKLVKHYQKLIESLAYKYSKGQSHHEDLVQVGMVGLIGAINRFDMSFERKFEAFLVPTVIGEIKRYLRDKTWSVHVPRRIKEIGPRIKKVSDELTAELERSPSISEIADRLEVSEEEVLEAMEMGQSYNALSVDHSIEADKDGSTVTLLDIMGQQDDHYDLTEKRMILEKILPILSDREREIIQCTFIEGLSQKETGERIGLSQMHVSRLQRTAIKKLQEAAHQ
# [4] = tested on: T2, SigB(Q225P) Q224P (Staphylococcus aureus (strain of the cloned gene not stated; XQW or Newman-SigB(Q225P)?)), ORF:92324cdd; experiment: EMSA
# T2 sequence: T1 sequence with Q224P
Substance,Kd [1],Kd [2],binding [3],binding [4]
biotin-labeled nuc promoter (BLI),113 nM,273 nM,–,–
ACGCATAGGGACTTCGTGACCATTTACAGTCACAACTTTACTTAAGTTAATAAGTGTTAATTCATCAAACGACAGTTGTTCAACTGGTTGATGATGGTATTTCTTCATTCTTGTAAGTAAATTATTAATACGTAAAACGAGTTCCCTTGGACTAAATGGTTTTTTGACATAGTCATCTGCACCTAAAGTTAAGGCG (double strand) [saeR coding region fragment],–,–,no binding,no binding
